Laboratory results reported in patent US20240228647A1, “OFATUMUMAB FOR TREATING MULTIPLE SCLEROSIS IN ASIAN PATIENTS” (Novartis AG, priority 2021, published 2024).
Where two headings read alike, the source gives them in different places.

How the values were obtained:
patients with RMS [1] = assay type: in vivo, human
Method: Ofatumumab was investigated in 1882 patients with RMS from two identical Phase III randomized, double-blind, double-dummy, active-comparator controlled, parallel-group, multicenter studies of identical design (Study I and Study II). Patients were randomized to receive either ofatumumab, OMB (20 mg s.c injections every 4 weeks, after an initial loading regimen of 3 injections on Day 1, 7, and 14), or teriflunomide, TER (14 mg p.o. once a day) as active comparator. For brevity, the teriflunomide data are not shown hereinafter.
The maximum treatment duration for an individual patient was 30 study months (approximately 2.5 years). The two studies included a total of 71 patients of Asian race (36 patients in ofatumumab and 35 patients in teriflunomide treatment groups). This Example also includes the Asian patients data from oncology studies (Study A and Study B), as supportive data, where required.
For the safety analyses of this report, non-serious treatment emergent adverse events (TEAEs) up to and including safety cut-off (i.e. 100 days after last study drug administration) and serious TEAEs regardless of the safety cutoff were considered (if reported prior to the data cut-off of Studies I and II). Common terminology criteria for adverse events (CTCAE) grading was used to record the severity of each AE. The latest version of CTCAE available at the time of TEAE reporting was used. […] The three most frequently reported AEs by SOC were ‘General disorders and administration site conditions’ ‘Infections and infestations’ and ‘Injury, poisoning and procedural complications’ in the Asian and ROW subgroups by race (Table 7). […] In the Asian subgroup, 1 patient experienced SAEs of urinary tract infections, urosepsis and testicular infarction in the ofatumumab group and 1 patient reported an SAE of nephrolithiasis in the teriflunomide group (Table 8). Due to the small number of Asian patients by race and region, results should be interpreted with caution.
AEs of special interest were summarized by risk name, PT and treatment. Furthermore, the incidence of any AE that fulfilled the search terms as defined in eCRS were summarized by risk name, level, and maximum CTCAE grade. In this section, AESIs are first described for subgroups by race and then by region. […] The definitions of AEs of special interest correspond to the identified or potential risks for ofatumumab and its class of drug as well as those for the comparator (teriflunomide). AESIs, based on the safety profiles of ofatumumab, comparator, and other anti-CD20 mABs are: • Injection-related reactions including injection-systemic reaction and injection-site • reactions • Infections, including opportunistic infections, HBV infection reactivation and PML • Malignant and premalignant disorders • Hepatic Safety • Neutropenia

patients with RMS [2] = experiment: Phase II study, Japan and non-Japan subgroups of patients with RMS; assay type: in vivo, human

With ofatumumab [OMB] the “TEAE: Gastrointestinal disorders, %” value (patients with RMS [1]; Asian (race)) was “(11.1) %”, the “TEAE: Nervous system disorders, %” value (patients with RMS [1]; Asian (race)) was “(11.1) %” and the “TEAE: Reproductive system and breast disorders, %” value (patients with RMS [1]; Asian (race)) was “(11.1) %”. The “AESI: Injection-site reaction (any reaction), %” value (patients with RMS [1]; Rest of World (race)) was “(11.1) %”, the “AE by PT: alopecia, %” value (patients with RMS [1]; in vivo) was 5.7% and the “AE by PT: alopecia, patients” value (patients with RMS [1]; in vivo) was 52. The “AE by PT: nasopharyngitis, %” value (patients with RMS [1]; in vivo) was 18.5%, the “AE by PT: nasopharyngitis, patients” value (patients with RMS [1]; in vivo) was 168 and the “AE by PT: pyrexia, %” value (patients with RMS [1]; in vivo) was 33.3%. For the same substance, the “AE by PT: pyrexia, patients” value (patients with RMS [1]; in vivo) was 12, the “AE by PT: upper respiratory tract infection, %” value (patients with RMS [1]; in vivo) was 11.1% and the “AE by PT: upper respiratory tract infection, patients” value (patients with RMS [1]; in vivo) was 4. For the same substance, the “AESI Neutropenia, %” value (patients with RMS [1]; in vivo) was “(1.0) %”, the “AESI: Drug abuse and dependence, %” value (patients with RMS [1]; in vivo) was 0.1% and the “AESI: Drug abuse and dependence, number of events [E]” value (patients with RMS [1]; in vivo) was 1. For the same substance, the “AESI: Herpes viral infections, %” value (patients with RMS [1]; in vivo) was 5.1%, the “AESI: Herpes viral infections, number of events [E]” value (patients with RMS [1]; in vivo) was 61 and the “AESI: Injection-site reaction (any reaction), %” value (patients with RMS [1]; in vivo) was “(2.8) %”. The “AESI: Lower Respiratory tract Infections, %” value (patients with RMS [1]; in vivo) was 3.3%, the “AESI: Lower Respiratory tract Infections, number of events [E]” value (patients with RMS [1]; in vivo) was 31 and the “AESI: Neoplasms, %” value (patients with RMS [1]; in vivo) was 2.6%. For the same substance, the “AESI: Neoplasms, number of events [E]” value (patients with RMS [1]; in vivo) was 28, the “AESI: Neutropenia, %” value (patients with RMS [1]; in vivo) was 1.0% and the “AESI: Neutropenia, number of events [E]” value (patients with RMS [1]; in vivo) was 13. The “AESI: Opportunistic infections, %” value (patients with RMS [1]; in vivo) was 0.1%, the “AESI: Opportunistic infections, number of events [E]” value (patients with RMS [1]; in vivo) was 1 and the “AESI: Pregnancy, %” value (patients with RMS [1]; in vivo) was 0.1%. The “AESI: Pregnancy, number of events [E]” value (patients with RMS [1]; in vivo) was 1, the “AESI: Premalignant disorders, %” value (patients with RMS [1]; in vivo) was 0.8% and the “AESI: Premalignant disorders, number of events [E]” value (patients with RMS [1]; in vivo) was 9. The “AESI: Risk of malignancy, %” value (patients with RMS [1]; in vivo) was 0.5%, the “AESI: Risk of malignancy, number of events [E]” value (patients with RMS [1]; in vivo) was 5 and the “AESI: Suicidal Ideation and Behavior, %” value (patients with RMS [1]; in vivo) was 0.9%. For the same substance, the “AESI: Suicidal Ideation and Behavior, number of events [E]” value (patients with RMS [1]; in vivo) was 9, the “AESI: Urinary tract infection, number of events [E]” value (patients with RMS [1]; in vivo) was 4 and the “AESI: Varicella-Zoster virus infections, %” value (patients with RMS [1]; in vivo) was 2.0%. For the same substance, the “AESI: Varicella-Zoster virus infections, number of events [E]” value (patients with RMS [1]; in vivo) was 19, the “Drug abuse and dependence, %” value (patients with RMS [1]; in vivo) was “(0.1) %” and the “Pregnancy, %” value (patients with RMS [1]; in vivo) was “(0.1) %”. The “SAE by PT: Appendicitis, %” value (patients with RMS [1]; in vivo) was 0.9%, the “SAE by PT: Appendicitis, patients” value (patients with RMS [1]; in vivo) was 8 and the “Serious TEAE: Blood and lymphatic system disorders, %” value (patients with RMS [1]; in vivo) was “(0.2) %”. The “Serious TEAE: Cardiac disorders, %” value (patients with RMS [1]; in vivo) was “(0.3) %”, the “Serious TEAE: Ear and labyrinth disorders, %” value (patients with RMS [1]; in vivo) was “(0.3) %” and the “Serious TEAE: Gastrointestinal disorders, %” value (patients with RMS [1]; in vivo) was “(0.9) %”. For the same substance, the “Serious TEAE: General disorders and administration site conditions, %” value (patients with RMS [1]; in vivo) was “(0.3) %”, the “Serious TEAE: Hepatobiliary disorders, %” value (patients with RMS [1]; in vivo) was “(0.5) %” and the “Serious TEAE: Immune system disorders, %” value (patients with RMS [1]; in vivo) was “(0.1) %”. For the same substance, the “Serious TEAE: Injury, poisoning and procedural complications, %” value (patients with RMS [1]; in vivo) was “(1.4%”, the “Serious TEAE: Investigations, %” value (patients with RMS [1]; in vivo) was “(0.2) %” and the “Serious TEAE: Musculoskeletal and connective tissue disorders, %” value (patients with RMS [1]; in vivo) was “(0.9) %”. For the same substance, the “Serious TEAE: Neoplasms benign, malignant and unspecified (incl cysts and polyps), %” value (patients with RMS [1]; in vivo) was “(1.0) %”, the “Serious TEAE: Nervous system disorders, %” value (patients with RMS [1]; in vivo) was “(0.8) %” and the “Serious TEAE: Psychiatric disorders, %” value (patients with RMS [1]; in vivo) was “(1.1) %”. For the same substance, the “Serious TEAE: Respiratory, thoracic and mediastinal disorders, %” value (patients with RMS [1]; in vivo) was “(0.2) %”, the “Serious TEAE: Skin and subcutaneous tissue disorders, %” value (patients with RMS [1]; in vivo) was “(0.1) %” and the “TEAE: Cardiac disorders, %” value (patients with RMS [1]; in vivo) was “(2.9) %”. For the same substance, the “TEAE: Congenital, familial and genetic disorders, %” value (patients with RMS [1]; in vivo) was “(0.1) %”, the “TEAE: Endocrine disorders, %” value (patients with RMS [1]; in vivo) was “(1.0) %” and the “TEAE: Gastrointestinal disorders, %” value (patients with RMS [1]; in vivo) was “(24.2) %”. The “TEAE: Hepatobiliary disorders, %” value (patients with RMS [1]; in vivo) was “(1.9) %”, the “TEAE: Immune system disorders, %” value (patients with RMS [1]; in vivo) was “(1.8) %” and the “TEAE: Neoplasms benign, malignant and unspecified (incl cysts and polyps), %” value (patients with RMS [1]; in vivo) was “(2.6) %”. For the same substance, the “TEAE: Nervous system disorders, %” value (patients with RMS [1]; in vivo) was “(29.5) %”, the “TEAE: Reproductive system and breast disorders, %” value (patients with RMS [1]; in vivo) was “(5.9) %” and the “TEAE: Social circumstances, %” value (patients with RMS [1]; in vivo) was “(0.3) %”. For the same substance, the “TEAE: Vascular disorders, %” value (patients with RMS [1]; in vivo) was “(6.0) %”, the “Depletion of CD19+ B-cells and CD3+CD20+ T-cells” value (patients with RMS [2]) was “rapid and consistent depletion” and the “Efficacy vs. placebo in lesion suppression” value (patients with RMS [2]; Phase II study) was “superior efficacy”.
